Experimental data published in a protein production outcome set (Wang et al. 2014).

Assay: label from the status in PepcDB records

Sequence	protein production
MTNNSTKVCVLLATYNGTKWCLDQVKSILNQEDVNLEVFVSDDLSSDSTTDLLALLNDSRIHILASSYKFGSACQNFFRLVRDVDFSEYDYIAFADQDDLWNPNKLSYSIEQLNAHCADAFSSNVTAFWPDGRARLIVKDQPQREWDFLFESAGPGCTFVLTKKLACNLANFLHNNYEKTKGVALHDWFTYAFARSNSYSWWIDSQPTMMYRQHESNEFGVNSGVTAALSRFRKTSNGWYRNQVILIGDLVGAEDSWPIKRMRRFSLLDRMLLLFNVFAFRRSFRDRIALFFLLLLPQKKLEHHHHHH	not failed
MDVEAWLDERVPLVETHHHHHHENLYFQSHMNHGANIFGVAFNTLLGKDEPQVFATAGSNRVTVYECPRQGGMQLLHCYADPDPDEVFYTCAWSYDLKTSSPLLAAAGYRGVIRVIDVEQNEAVGNYIGHGQAINELKFHPHKLQLLLSGSKDHAIRLWNIQSHVCIAILGGVEGHRDEVLSIDFNMRGDRIVSSGMDHSLKLWCLNTPEFHHKIELSNTFSQEKSTLPFPTVTKHFPDFSTRDIHRNYVDCVQWFGNFVLSKSCENAIVCWKPGQLHQSFEQVKPSDSSCTIIAEFEYDECEIWFVRFGFNPWQKVIALGNQQGKVYVWELDPSDPEGAHMTTLHNSRSVATVRQIAFSRDASVLVYVCDDATVWRWNRRQTTSI	failed
MSLTTFLFRNGALLDPDHPDLLQGFEILIEDGFIREVSDKPIKSSNAHVIDVKGKTIMPGLIDLHVHVVAIEFNLPRVATLPNVLVTLRAVPIMRAMLRRGFTTVRDAGGAGYPFKQAVESGLVEGPRLFVSGRALSQTGGHADPRARSDYMPPDSPCGCCVRVGALGRVADGVDEVRRAVREELQMGADQIKIMASGGVASPTDPVGVFGYSEDEIRAIVAEAQGRGTYVLAHAYTPAAIARAVRCGVRTIEHGNLIDDETARLVAEHGAYVVPTLVTYDALASEGEKYGLPPESIAKIADVHGAGLHSIEIMKRAGVKMGFGTDLLGEAQRLQSDEFRILAEVLSPAEVIASATIVSAEVLGMQDKLGRIVPGAHADVLVVDGNPLKSVDCLLGQGEHIPLVMKDGRLFVNELEGHEGHHHHHH	not failed
MTIAHISDLHFGRIADSGVVEALLDEINAAGIDLVAVSGDLTQRARPAEYRAARNLLDALGPPTLVVAGNHDVYPWWRPLKRLRTPLERYRQFITEDLAPTFEAGGVAALGLTSAYGPSIKGGRIGPADRAAMRAFFSGTGDDRFKVLVVHHQLHPTAIGPISPHPVARQAQQTLAVAGEVGIDLILCGHLHISAIQPLEIIPGTPRIVVASAGTATSNRWREPTGPINFYNVVSVEPEAFSVEERRYVPDEGRFVRDGVTRFDHAG	failed
MYNPTAIAATNYQILPRRGKHKIFIGMAPGVGKTYRMLEEGHALKQDGVDVAIGLLEAHGREETTLKAEGLELIPRKQVYCRNVLLQEMDTEEILRRSPQLVLIDELAHTNIPGSKQEKRYQDVEKILNAGIDVYSTVNIQHLESLNDLVYRISGVVVRERIPDRIIDDADEIVVVDVTPETLQERLQEGKIYAPEKIDQALQNFFRRSNLIALRELALREIADNIEEESISETKNLHYNIRERVLVCISTYPNSIQLLRRGARIANHMNGQLFVLFVAPAGKFLSKSEALHIETCKRLCQEFTGEFLRIESPNIVTTIVKIATQERITQIVLGETRRSRFQLLFKGSIVQQLMRALPQVDIHIIANN	failed
MTYFASDFQDLDNSGNIENFIRCLELQQSLDLYKYYKQKTFEKMQLKPGDSVLEVGCGTGNDALLLANYVGETGKVTAVDRSQFMLDQARERAKNSTTKFEFVLADAEQLPFPGANFTAARVDRTLQHIAQPQKAIAEMARVVQSNGWVVAFEPDWETLVIDSDQRGVTRAITNFWCDNFPSGWVGRYLFKYFRQAGLTDIAVDPITICLTEFELADKILDLSRTVEKISEQGTISQNDLTLWFKAIDQNDQAGEFFCAFTAFLVRGRKP	failed
VLESVRKEWLEIMDRELLEKARSLINANYISTTLSTVDRNYEVNIAVISVLEMIGDDTIICARFGADKTYANLKETGKGVFMVLLTDNDKSKDGIRVYVELSADLQEGEYFDRIKKRLDNTTYKNFPLKNCLVFKIVKILPVSLLRK	not failed
MSHAKGFKKDYYGGTLMALVGLAAVMAGLQYHTGSLSHMGPGFFPVAVGALLAFVGVLIAVSARNDEPKEDKPSGHGHSHAAPDLRGTVCIVLGTLAFLLFGKYGGMIPATFAIVFISALGDRSNSIKQAFLLSIAMCVIAAVVFSWALQLQLPMFTWGA	failed
MFSGCVERSTRVLQDQEGDTVTSSPAGNKLPNINGLRDSNPRHSLGYRVQHRARTVVASVIVAMLVFAGTAAAATWLDVDNVIQHQKVDVIGQGSVSAEPTIIDPNSGKPIEILLLGQDSRDGEGNQAIGGDMTGNHQADTAMVLQISADRSAINLVSIPRDSLVDVPQCETSKGTIPAQYGVMFNSIFAGAYQTGGDLASAASCTLNAVNSLTGLNIQNFIVVDFAGLVKMIDAIGGVDICVPQDIDDPYSTLQLSKGMQHLDGTQATQYARTRYTLGDGSDTARTTRQQYLIKQLMSEALSKNLFTDTAQLYQLAKSALESLNISEGMADTAALVGLAMSLKNFNMSHLYTQTVPVVAAPSDPNRSVWADNADEVWAKMREGKSLFESTETNATSTDSTTTDGTTESQNTDENSGEQAQSTETPDATTGLITRADGTLIDPNTGGTVDPEDGSIHDATTGQYIGIADRYLNATVCAVPAKN	failed
MKQKNAYNRLTNHYDDVLTGRKWWSWLYMHCLWKTDDNIIAGSVLDMIPGNFEGRILDVPVGTAIFTYDKYRRMPQAEIVGLDYSQEMLDIAAMRFSAEQITNVSLRQGDVGSLPFPDAAFDLVLSMNGFHVFPDKDRAFAETFRVLRGGGLFCGCFYVKGERKPADWFVRKFLDKKGLFRPPHYTREEAIEKLRSLYGDNVEIQDARSLLVFKCTKPRLEHHHHHH	not failed
MNYDRYYTCDLVNGEGVRVTLFVTGCAHACDGCHNRSTWDRKSGRPFTPEAREELLRHCASHDGLSLSGGDPLLPANRDEILALCRMFKQRYPQKNIWLWTGYDYEEVRELEILQFVDVLIDGRYRQDLPTSKPWRGSDNQRLIRLGAGSGAAVAAVGAADVIAFEA	failed
MFEKQFNHRTLETSLGPVEIEGPVTSQILATYKLDPGLTAFRQPAEQHEALVEIAALEEGRIIIARQGNDIIGYVTFLYPDPYETWSEGNNPYILELGAIEVAARFRGQQIGKKLLEVSMLDPAMEHYLILTTEYYWHWDLKGSGLSVWDYRKIMEKMMNHGGLVFFPTDDPEIASHPANCLMARIGKHVAPEVVAHFDALRLRRRFMYD	not failed
MGLMKFQLFIQPKLDVLQGNIVEYEILLRDDSAVPRFPLSELEAVLADEELYLAFSEWFSEAFLDVLKKYPNDRFAINIAPQQLFYIETLHWLDKLKSESHRITVEMTEDIFDVPGHKRHLNANDKNAFILNKIKVIHGLGYHIAIDDVSCGLNSLERVMSYLPYIIEIKFSLIHFKNIPLEDLLLFIKAWANFAQKNKLDFVVEGIETKETMTLLESHGVSIFQGYLVNKPFPV	not failed
LTESEERWRLALDAANLGFWDWNVLTAKVVWSENHERLFGLVSGSFDGTYETFLSCVHPEDRESVIQVIGVCLENKTDYYDEFRIVWPDKSIHWIAAKGRFFYNDQGQPVRMIGVCMDITKSKRTEEN	failed
MDGLIPMALKAVKKNLTRRRYERLSYSATTRESYDFASDIEMNVDGRHHRRGWSVGDFSSLSSRETKRNGGVAPEKSLTPPREGQLVRFKSHRLFSCISGQ	failed
MKPNEVQIQLERLFRTPIEHPDSSKTAPIAISDLFVQIDPAAGEVQLFNDKDEELHRVVIYDWIQEGRTEIPSAMRQELRAAVKRLHAARFFDKDQFVRPFSVALTQEDFTIIEELLFIDDELIQLDSALLENLDEELNNFLAELLPDIKLEHHHHHH	not failed
MAELIHSTIGRLLEQTADAYPDRDAVVYPDRNIRYTYAQFDSLCRQTAKGLMRMGIGKGDHVAIWASNISEWLAVQFATAKIGAVLVTVNTNYQAHELDYLLKQSDAAALIIMDSYRGTSYPDIVNSLIPELQEAKPGQLKSERYPFLKTLIYIGNKRLSGMYHWDDTEILAKTVTDAELEERMNSLDKDNVINMQYTSGTTGFPKGVMLTHFNVINNAANIAECMALTSQDRMCIPVPFFHCFGCVLGVLACVSVGAAMIPVQEFDPVTVLKTVEKEKCTVLHGVPTMFIAELHHPDFDAYDLSTLRTGIMAGSPCPSEVMKAVIERMGMKDITIAYGQTEASPVITQTRANDSFIRRVETTGRALPHTEVKIVEPGTCQEVQRGMQGELCTRGYHVMKGYYKDKDATRKAINHDGWLFTGDLAVMDEDGYCRITGRLKDMLIRGGENIYPREIEEFLYQHPAVLDVQVVGVPDAKFGEEAAAWIKLKDGKSVSPDELKAYCKGKIARHKIPRYVIFTDDYPMTASGKIQKY	not failed
MKPKVFITREIPEVGIKMLEDEFEVEVWGDEKEIPREILLKKVKEVDALVTMLSERIDKEVFENAPKLRIVANYAVGYDNIDIEEATKRGIYVTNTPDVLTDATADLAFALLLATARHVVKGDRFVRSGEWKKRGVAWHPKWFLGYDVYGKTIGIIGLGRIGQAIAKRAKGFNMRILYYSRTRKEEVERELNAEFKPLEDLLRESDFVVLAVPLTRETYHLINEERLKLMKKTAILINIARGKVVDTNALVKALKEGWIAGAGLDVFEEEPYYNEELFKLDNVVLTPHIGSASFGAREGMAELVAKNLIAFKRGEIPPTLVNREVIKIRKPGFE	not failed
MYSRLPTTYELIEALQASPQAGPAAESRLATVLWAGFVLALVPMLVAGGALVWWHRVLAQVPPAWLPQVFHVLLAVCGVFYVGAWVIRLLDRRAALQHPLRWLTRRLDTQSEVENALLLRLGRIPALQLRARQRRVVLQARLWDASARTMALVLAIGPAAVILADGVAVMAPGGVPALVAIYGAVLVAGCALALFAQLQCSAPLRRLAHVLGEAAEINEAVNRQRQP	failed
MSALSRWLLIPPVSARLSERYQGYRRHGASPFSAALGCLWTILAWIVFPLEHPRWQRIRDGHKALYPHINAARPRPLDPARYLIQTLWLVMISSTKERHEPRWRSFARLKDVRGRYHQWMDTLPERVRQKTTHLEKEKELGHLSNGARRFILGVIVTFSLILALICITQPFNPLSQFIFLLLLWGVALLVRRMPGRFSALMLIVLSLTVSCRYIWWRYTSTLNWDDPVSLVCGLILLFAETYAWIVLVLGYFQVVWPLNRQPVPLPKEMSQWPTVDIFVPTYNEDLNVVKNTIYASLGIDWPKDKLNIWILDDGGRESFRQFARHVGVHYIARATHEHAKAGNINNALKHAKGEFVAIFDCDHVPTRSFLQMTMGWFLKEKQLAMMQTPHHFFSPDPFERNLGRFRKTPNEGTLFYGLVQDGNDMWDATFFCGSCAVIRRKPLDEIGGIAVETVTEDAHTSLRLHRRGYTSAYMRIPQSAGLATESLSAHIGQRIRWARGMVQIFRLDNPLFGKGLKLAQRLCYLNAMFHFLSGIPRLIFLTAPLAFLLLHAYIIYAPALMIALFVIPHMVHASLTNSKIQGKYRHSFWSEIYETVLAWYIAPPTLVALINPHKGKFNVTAKGGLVEEKYVDWVISRPYIFLVLLNLLGVAAGVWRYYYGPENETLTVIVSLVWVFYNLVILGGAVAVSVESKQVRRAHRVEIAMPGAIAREDGHLFSCTVHDFSDGGLGIKINGQAQVLEGQKVNLLLKRGQQEYVFPTQVVRVTGNEVGLQLMPLTTKQHIDFVQCTFARADTWALWQDSFPEDKPLESLLDILKLGFRGYRHLAEFAPPSVKVIFRSLTALIAWIVSFIPRRPERQAAIQPSDRVMAQAQQ	failed
